Source: the supplement of paper PMC7125110
± gives the standard error. Fewer inactive variants are shown than the library holds.

B1: glmS ribozyme (parent)
chain: AUAAAAGCGCCAGAACUACAGAAAUGUAGUUGACGAGGAGGAGGUUUAUCGAAUUUUCGGCGGAUGCCUCCAAA

What was measured:
Conditions in all cases: with glucosamine-6-phosphate
glucosamine-6-phosphate [1] = variants of: B1; experiment: self-cleavage kobs at 640 uM GlcN6P; higher = faster cleavage; RNA array
Method in brief: (§1)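 On sequenced MiSeq chips, barcoded ribozyme variants were made in situ by E. coli RNA polymerase and followed at 37 °C through a hybridised Cy3 probe. Glucosamine-6-phosphate was flowed in at 40 μM to 10 mM in HEPES/KCl/Mg(OAc)2 buffer. Exponential fits to normalised per-tile medians gave kobs, and weighted Michaelis–Menten fits gave kcat and KM.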

glucosamine-6-phosphate [2] = variants of: B1; experiment: self-cleavage kobs at 2500 uM GlcN6P; higher = faster cleavage; RNA array
Method in brief: as §1

glucosamine-6-phosphate [3] = variants of: B1; experiment: self-cleavage kobs at 10000 uM GlcN6P; higher = faster cleavage; RNA array
Method in brief: as §1

Variant	self-cleavage kobs at 640 uM GlcN6P (glucosamine-6-phosphate [1]) [s⁻¹]	self-cleavage kobs at 2500 uM GlcN6P (glucosamine-6-phosphate [2]) [s⁻¹]	self-cleavage kobs at 10000 uM GlcN6P (glucosamine-6-phosphate [3]) [s⁻¹]
AUAAAAGCGCCAGAACUACAGAAAUGUAGUUUACGAGGAGGAGGUUUAUCGAAUUUUCAGCGGUUGUCUCCAAA [G32U G59A A64U C67U]	< 1e-05	< 1e-05	
AUAAAAGCUCCAGAACUACAGAAAUGUAGUUGACGAGGAGGAGGUUUAUCGAAUUUUGCGCGGAUGCCUCCAAA [G9U C58G G59C]	< 1e-05	< 1e-05	
AUAAAAGCGCCAUAACUACAGAAAUGUAGUUGACGAGGAGGAGGUUUAUCGAAUUUUCGGCGGGGGCCUCCAAA [G13U A64G U65G]	8.37e-05 ± 3e-05	5.07e-05 ± 1.7e-05	
AUAAAAGCGCCAGAACUACAGAAAUGUAGUUGACUGGGAGGAGGUUUAUCGAAUUUUCGGAGGAUGCCUCCAAA [G35U A36G C61A]	< 1e-05		
AUAAAAGCGCCAGAACUACAGAAAUGUAGUUGACAAGGGGGAGGUUUAUCGAAUUUUCGGUGGAUGCCUCCAAA [G35A A39G C61U]	< 1e-05	< 1e-05	
AUAAAAGCGCCAGAACUACAGAAAUGUAGUUGACGAGGAGGUGGUUUAUCGAAUUUUCGGCGGAUGCCCACAAA [A42U U69C C70A]	0.0004 ± 0.00011	0.000308 ± 9.7e-05	
AUAAAAGCGCCAGAACUACAGAAAUGUAGUUGACGAGGAGGAGGUUUAUCGAAUUUUGUGCGGAUGCGUCCAAA [C58G G59U C68G]	4.54e-05 ± 1.7e-05		
AUAAAAGCGCCAGAACUACAGAAAUGUAGUUGGUGAGGAAGUGGUUUAUCGAAUUUUCGGCGGAUGCAUCCAAA [A33G C34U G40A A42U C68A]	< 1e-05	< 1e-05	
AUAAAACCGCCAAAACUACAGAAAUGUAGUUGACGAGGAGGACGUUUAUCCGAUUUUAGGCGGAUCCAUCCAAA [G7C G13A G43C G51C A52G C58A G66C C68A]	< 1e-05		
AUAAAAGCGCCAGAACUACAGAAAUGUAGUUGAUGAGGAGGAGGUGUAUCGAAUUUUCGGCGGAUGCGUCCAAA [C34U U46G C68G]	0.000568 ± 0.00025	< 1e-05	
AUAAAAGCGCCGGAACUACAGAAAUGUAGUUGAUGAGGAGGAGGUUUAUCGAAUUUUCGGCGGAUGCCUCCAAA [A12G C34U]	< 1e-05		< 1e-05
AUAAAGGCGCCAGAACUACAGAAAUGUAGUUGACGAGGAGGAGGUUUAUGGAAUUUUCGGCGGAUGCCUCGAAA [A6G C50G C71G]	0.000369 ± 7.4e-05	9.48e-05 ± 2.2e-05	
AUAAAAGCGCCAGAACUACAGAAAUGUAGUUGACGGGUAGGAGGUUUAUAGAAUUUUCGGCAGAUGCCUCCAAA [A36G G38U C50A G62A]	< 1e-05		
AUAAAUGCGCCAGACCUACAGAAAUGUAGUUGACGAGGAGGAGUUUUAUCGAAUUUUCGGCGGAUGCCUCCAAA [A6U A15C G44U]	< 1e-05	< 1e-05	
AUAAAAACGCCGGAACUACAGAAAUGUAGUAGACGAGGAGGAGGUUUAUCGAAUUUUCGGCGGAUGCGUCCAAA [G7A A12G U31A C68G]	0.000116 ± 3.5e-05		
AUAAAAAAGCCAGAACUACAGAAAUGUAGUUGACGAGGAGGAGGUUUAUCGAAUUUUCGGCGGACGCCUCCAAA [G7A C8A U65C]	< 1e-05	< 1e-05	
AUAAAAGCGCCAGAACUACAGAAAUGUAGUUGACGAGGAAGAGGUUUAUCGAAUUUACGGCGGAUGCCUCUAAA [G40A U57A C71U]	6.1e-05 ± 2.3e-05	0.000149 ± 3.4e-05	
AUAAAAGCGCCAGAACUACAGAAAUGUAGUUGACGAGGAGGAGGUUUUUCGACUUUUCGGCGGAUGCGUCGAAA [A48U A53C C68G C71G]	9.77e-05 ± 3.4e-05		
AUAAAAACUCCAUAACUACAGAAAUGUAGUUGACGAGGAGGAGGUUUCUCGAAUUUUCGGCGGAUGCCUCCAAA [G7A G9U G13U A48C]	< 1e-05		
AUAAAAGCGCCAGAACUACAGAAAUGUAGUUGACGAGGAGGAGGUUUAUAUAAUUUUCGGCGGAUGCCUCCAAA [C50A G51U]	< 1e-05		< 1e-05
AUAAAACCGCCAGAAUUACAGAAAUGUAGUUCACGAGGAGGAAGUUUAUUGAAUUUUCGGCGGAUGCCUCCAAA [G7C C16U G32C G43A C50U]	< 1e-05		
AUAAAAGCGCCAGAACUACAGAAAUGUAGCUCACGAGGAGGAGGUUUAUCGAAUUUUAGGCGGAUGCCUCCAAA [U30C G32C C58A]	3.93e-05 ± 1.5e-05		
AUAAAAGCGCCAGAACUACAGAAAUGUAGUUGACGAGGAGGAGGUUUAUCGAAUUUUCGGCGGCUGCAUGCAAA [A64C C68A C70G]	< 1e-05	< 1e-05	
